Reference: paper PMC10885737 (Journal of molecular biology, 2023)
Like-named read-outs stand apart in the source and are kept apart here.

Assays:
[1] = molecular target: soluble disulfide-stabilized HIV-1 CA hexamer (A14C/E45C/W184A/M185A) (Human immunodeficiency virus type 1 group M subtype B, UniProt P12493, A146C/E177C/M317A/W316A); assay: biochemical; format: binding
[2] = molecular target: soluble, disulfide-crosslinked HIV-1 CA hexamer (A14C/E45C/W184A/M185A) (HIV-1); assay: nanoDSF
[3] = molecular target: disulfide-crosslinked A14C/E45C HIV-1 CA tubes (HIV-1); assay: co-sedimentation
[4] = molecular target: soluble, disulfide-crosslinked HIV-1 CA hexamer (A14C/E45C/W184A/M185A) (HIV-1); assay: cryo-EM structure
[5] = Observation of proteolysis during protein preparation; format: physicochemical; conditions: recombinant protein preparation from E. coli
[6] = molecular target: soluble, disulfide-crosslinked HIV-1 CA hexamer (A14C/E45C/W184A/M185A) (HIV-1); assay: nanoDSF; remark: listed apart in the source

Molecule: Ac-EIIAEDYDDDPVDYE-NH2 [15–6]
- Kd [1]: 54 ± 0.4 nM

Molecule: PQBP1 Nt peptide (residues 1–46) (from UniProt O60828 1-46)
- Kd [2]: 503 nM

Molecule: full-length recombinant PQBP1 (polyglutamine binding protein 1) (from UniProt O60828 1-265) (natural protein)
- shift in apparent Tm of CA [2]: 2 °C
- percent of input pelleted with the CA tubes [3]: 17%

Molecule: soluble, disulfide-crosslinked HIV-1 CA hexamer (A14C/E45C/W184A/M185A) (complex)
- stoichiometry N [4]: 6

B1: DE-to-G: recombinant DE-to-G PQBP1 mutant protein (protein)
chain: MPLPVALQTRLAKRGILKHLEPEPGGGIIAEDYGGGPVDYEATRLEGLPPSWYKVFDPSCGLPYYWNADTDLVSWLSPHDPNSVVTKSAKKLRSSNADAEEKLDRSHDKSDRGHDKSDRSHEKLDRGHDKSDRGHDKSDRDRERGYDKVDRERERDRERDRDRGYDKADREEGKERRHHRREELAPYPKSKKAVSRKDEELDPMDPSSYSDAPRGTWSTGLPKRNEAKTGADTTAAGPLFQQRPYPSPGAVLRANAEASRTKQQD
modifications: left off: His-tag (with Gly-Gly linker), C-terminal, state not stated
- Susceptibility to proteolysis [5]: prone to proteolysis

B2: PQBP1 15-mer peptide 15–6 (peptide)
peptide: Ac-EIIAEDYDDDPVDYE-NH2
- Kd [6]: 54 nM
